The nature of the series: soluble on expression in E. coli; label from the status in PepcDB or PDB records.
On to “ISGQKEFEEKPLESKEKYQDLFNLIEQAVQIGEIVFDENGRSIDNIILDVNLAYEKHSGLRREQVIGRGFKEIFPIVEQRWLDRYGEVVRTGMGMHFEEYNASLDRWFEVFASPMGSNRFIAVFSDIT”, for which the “soluble on expression in E. coli” value is “not soluble”.

“GSMTHYDVVVLGAGPGGYVAAIRAAQLGLSTAIVEPKYWGGVCLNVGCIPSKALLRNAELVHIFTKDAKAFGISGEVTFDYGIAYDRSRKVAEGRVAGVHFLMKKNKITEIHGYGTFADANTLLVDLNDGGTESVTFDNAIIATGSSTRLVPGTSLSANVVTYEEQILSRELPKSIIIAGAGAIGMEFGYVLKNYGVDVTIVEFLPRALPNEDADVSKEIEKQFKKLGVTILTATKVESIADGGSQVTVTVTKDGVAQELKAEKVLQAIGFAPNVEGYGLDKAGVALTDRKAIGVDDYMRTNVGHIYAIGDVNGLLQLAHVAEAQGVVAAETIAGAETLTLGDHRMLPRATFCQPNVASFGLTEQQARNEGYDVVVAKFPFTANAKAHGVGDPSGFVKLVADAKHGELLGGHLVGHDVAELLPELTLAQRWDLTASELARNVHTHPTMSEALQECFHGLVGHMINF”: the “soluble on expression in E. coli” value is recorded as “soluble”.

For the sequence “SETRSPGLNNMKPQSLQLVLEEQVLALQQQMAENQAASWRKLKNSQEAQQRQATLVRKLQAKVLQYRSWCQELEKRLEATGGPIPQRWENVEEPNLDELLVRLEEEQQRCESLAEVNTQLRLHMEKADVVNKALREDVEKLTVDWK”, the “soluble on expression in E. coli” value was “soluble”. For “MNRMKTKQIDRHLAKFAYSEEFVGDTKRSTAAYTSVREDASIGSTHKLPLEVEEFGKMSNTVILGCGLSGMLTALSFAQKGIKTTIFESKSVKSPEFFKDIRTTALTPHSKNFLFSIDIWEELEKFVAEMQDIYVVDNQASEILDLRNDADAVLGYVVKNSDFKKMLLSKITNNPLITLIDNNQYQEVISHNDYSIIKFDDNQIKCNLLIICDGANSKVRSHYFANEIEKPYQTALTFNIKHEKPHENCAMEHFLPFGPFALLPLKDQYASSVIWSTSSDQAALIVNLPVEEVRFLTQRNAGNSLGKITIDSEISSFPLKARIANRYFHNRIVLIADTAHTVHPLAGQGLNQGIKDIEILSMIVSNNGPLQEYQKLRQEDNFIMYKLTDELNNIFSNHSKNLRCLRQIGFKVINNFKPVKNLITSYAMGKR”, the “soluble on expression in E. coli” value is recorded as “not soluble”. As for “MAHHHHHHMSDQINVKHKIGDTCRKLYSYFKTVNNTSTFIQNGTLTPSEFVDSGDFLVYKFKTWEWQEADKDRVVPYLPENKQFLITKNVPCKQRIKDLNNIVHDLIMIGYSQVMKKITIPQIYMNIYLIVNTQLMTKMYKMYKITSCYSKNMLHDSNSFKNNFIIIIKNFTCLNIITYDKYYQTPRIWLFGYNENGDPLKSEEIFEDILSDYSYKTVTVKIKIIFMILIRVLVHAEAILNVVNNWISEEKEPRIKKRINVYMYVFCFRHDLYLLFLLKFISGVIPTIEYDFTTDIEIPRDSNAGL”, the “soluble on expression in E. coli” value is “not soluble”. For “MGSDKIHHHHHHMQTLEQLTSPEHSAWITLSQWIDNARNHCEVIKKDQSSAERELFTMQMPTSSPMGAVIYETGGILIHYGWLRILGSGSFKLPRGLMDWNFSKSFSESGEKPKYLLVADDVIGGYFALNGGSLGNNIGKIYYYSSKDLTWHNLNFTYTEFLAWVLNGDVEAFYQGLFWKNWQDDVKQLDGNQVFVFTPDLNQDRKIAIDERQKQEVNIETHYQANFAEKNKFDLAYSVA”, the “soluble on expression in E. coli” value was “not soluble”. As to “MGSDKIHHHHHHMQVLGLCRFSYLGLGGFKVMHETLEERRAYLYAPARMEDRFRQFEAVTLPSVTGQTDPDFEFLVVIGECFPDSYRARLEDLVRGVPQVRIRAYPPLRHRTAMAQALDDHRRDMDAPCLQFRLDDDDGMARDFVARYREVAADTEALWRKHPAVAVDFNTGYVFRCGKRGIEISPFQFAYSAIALGVIVAPGHREGIMHFGHHKLWTVMPTITVPGEDMMLRGHNEFNDSRAKPGAKQFSYQPLDADEEAYFKARFNVDNARVREIFSAPMP”, the “soluble on expression in E. coli” value is “not soluble”. As for “MFMEFSAGLMPLETALTQMLSRITPLTAVETLPLVNCFGRILATDIVSPLDVPGFDNSAMDGYAVRVADLSADKPLPVAGKAFAGQPYQGEWPAGTCIRIMTGAPVPAGCEAVVMQEQTEQTDDGVRFTADVRCGQNIRRRGEDIRQDAVVFPAGTRLTTAELPVLASLGIADAQVVRKVRVALFSTGDELQLPGQPLEAGQIYDTNRLTIHLMLQQLGCEVINLGIIPDDPGKLRAAFIDADSQADVVISSGGVSVGEADYTKTILEELGEIAFWKLAIKPGKPFAFGKLSNSWFCGLPGNPVSAALTFYQLVQPLLAKLGGNTASAVPPRQRVRTASRLKKTPGRLDFQRGILQRSANGELEVTTTGHQGSHIFSSFSLGNCFIVLERERGNVEPGEWVEVEPFNALFGGL”, the “soluble on expression in E. coli” value is recorded as “not soluble”.

As for “MSEDIGVTRFREYLRVNTEQPKPDYEACRDFLFKYADELGIERRSVETAPGTYFVIMTIPGSKPDLPSIMLYSHTDVVPTFREYWTHDPYSAFKDEDGNIFARGAQDMKCVGVQYMEALRNWFAKGVKQWTRTIHIVWGPDEEIGHINGMKGFAVTEEFKKLNIDFALDEGIATEDDVYKIFYAERIPWWVKVTLPGHPGHGSKFIEKTAIEKLHKLIASVDEFRNEQKSLLAEHPEWTVGDVTTSNITIINGGVQVNVVPEKFEAYIDIRVTPLQDLDAVLARVDQWAKEAGEGVTYEFMQFSNFKLISPNTREDPFWAAIDDALQKEGCKYKKEIFIGATDSRFVRAQGIRAIGFSPIINTPSLLHDHNEFLNEKTFLRGVEIYETLINKLANVN”, the “soluble on expression in E. coli” value is given as “not soluble”. Turning to “MSLANKKFWLITDTHFDDEFTVGSSSKCLAIDCCHSNSIPRKGQENFISGSCGDYNCYSPLNVSESAFDYIAKHQSESKLIFWLMDVVPGDVITQSKETNKKRIQLQVEALKKRLSGFRIYPVPGNHDYWLSSNWQYPPQNQWMLDFMGDLFKDWLSPNALEQFKKGGFYTELIDSGVRIIALYLAYVDVYGSHCNEYVENDPAGMMKWFNETLELARKNGERVILLSHEGVGLKESGTIDVVPKFNEDFSYAMNEYSDIIISHLSGHSHFNSFRVLPNITKPTFHIIMNPAMTSFKNLNPRFRLYEYDRKNIKDYTNYMLNINKCNKNNKFEWEIEYNAKELFGIEEYTTKNLKEFIEQLAVDDELWTKFDSHYSTINRKCEGNCRKDLLCSIHCMKESEFITCINQKEGHHHHHH”, the “soluble on expression in E. coli” value was “not soluble”. With “VLLAIDVRNTHTVVGLLSGMKEHAKVVQQWRIRTESEVTADELALTIDGLIGEDSERLTGTAALSTVPSVLHEVRIMLDQYWPSVPHVLIEPGVRTGIPLLVDNPKEVGADRIVNCLAAYDRFRKAAIVVDFGSSICVDVVSAKGEFLGGAIAPGVQVSSDAAAARSAALRRVELARPRSVVGKNTVECMQAGAVFGFAGLVDGLVGRIREDVSGFSVDHDVAIVATGHTAPLLLPELHTVDHYDQHLTLQGLRLVFERNLEVQRGRLKTAR”, the “soluble on expression in E. coli” value is listed as “soluble”. With “ALIIVSGSEGRIEKAQNIAQLLSSRGYICLAIAYFGLEGLPKHLKRIPLECLVEAKSYLRQYPQVDSERIGIYGRSKGAELVLAEESIFNDVQCLVLNSPSDVVDEGIIGKWNSHTSSWTHLQKELPYQKFRFRDYLFSKLFRKDFPKDCSARIDIGQMHSPILLLESTVDEIWDASSAIDDIVSHYKGHYITFKKYHETGHMLTVAYQPNHRYRKDWHLLMKESEDSWLATIHFFDRHLK” the entry was “not soluble”; with “SHPDLNKLLELWPHIQEYQDLALKHGINDIFQDNGGKLLQVLLITGLTVLPGREGNDAVDNAGQEYELKSINIDLTKGFSTHHHMNPVIIAKYRQVPWIFAIYRGIAIEAIYRLEPKDLEFYYDKWERKWYSDGHKDINNPKIPVKYVMEHGTKIYGSGGSHPDLNKLLELWPHIQEYQDLALKHGINDIFQDNGGKLLQVLLITGLTVLPGREGNDAVDNAGQEYELKSINIDLTKGFSTHHHMNPVIIAKYRQVPWIFAIYRGIAIEAIYRLEPKDLEFYYDKWERKWYSDGHKDINNPKIPVKYVMEHGTKIYGSHHHHHH”, “soluble”. For the sequence “GPGSMSKGFEVYPLTGSHKEVVINEALIRSAISFKPSLTTEDDRVRVVGNQEKALCEEKVQKEAAGIALEDVQTLLLSFRGIKRLENLSCLRSLTKLHLDNNRIRCIEHLESLVHLEWLDLSYNAIEVIDGLQALQHLNCLSLYANKITAVDGLTCLPELNTLSLGRNPLENIDETVHYLHHLPRLQVLTLKECPLAGLPNYRSRVLAFVRGLKFFDGHLVRHDEAAKAREAFRENLLTVDEEDEARAAAAKLQADQEIIASSYQQYNCPNEVMLFDELLHLDPEGRHMEAILRSEAVFSVAKEPLDRYQTEFNEQLRQLTAAMKDIRERRDADDAAYREAVTYTLRHSAAASLASMQRFEALAKGHIVKGVAQPVPGPAKRLPSQATRSLHAALDKLKKDLLEEEAHQYDVLEVLHNNTIAKWKSHSVEVVLQSSFEALLRLETDFQATVRHIFDAVFEERRKGDNAERAFRYVGQDDAMLAFLDNKEEYQRTVNEWYELRRKRVEELEMHHLKAEETLLNARANSILAAEQDRHRRRVHEVCQYVKEMSSRIDGCDH”, the “soluble on expression in E. coli” value was “not soluble”. Turning to “MASSSSSSEHKVFLSFRREDTGRTFVSHLYRSLDQKEIRTYKFENQQAGDGKRISSEVKQAINESRIAVVVISENYVSSVLCLDVLAKIIERLPLIKIETVFYEVDPGDLTRPTGKFADDFRRHEARENRRTVNRWRDALDQLVSITNSNFCSRNWEDDSKMIDDLIIRLINIYFSKYYTPDVDIIAETTVGLDASVLGLMTDIDMKYKLNSLSGSVESGFGLERYALEATSVMDDMSNESPSPTSDDSNGLVGMYRHKKAVYGLLDLESKNQVRTIGIWGFQGVGKTTLAECVFDDISSHFQHYCFLTNANKIYQNRISPSLLKHLTRRRSSEDIFDAIKPSLVNRKVLFVVDGVDATYNEQFNDAMKVTRWLGPGSRIIMTSRFKSSLKFGGAKYEMECLRYEEALQLFSLYAFKKTYPLIGFELFSIRAVHFAGRLPLSLKVLGSFLYDKDEESWKRTLHKLEASQDNDRRYVSNYIGAGEYLPRRQIELEQYVSPDEEEYSPSYIMSL”, the “soluble on expression in E. coli” value was “soluble”. As for “MAHHHHHHMRVALIFGITGQDGSYLSELLLEKNYHVHGVIRRCSSFNTKRIDHIFDKLILHYGDLLDSSNICSLICEIKPNEIYNLAAQSHVKVSFEMPEYTTEATALGTLRILEGIRISKVKNIKFYNASTSELFGKVQCPIQNENTPFYPVSPYAIAKLYAHYITINYRESYNMFCINGILFNHESPRRGETFVTRKITRGIAKIQKKLETSIILGNIDTYRDWGHAKDYVYAMYLMLQQNEADDFVICSNEQHSVREFCEISFSFVNIHIKWIGKGIQEIGVDQNNNVLIKKHEKYFRNCEVNTLLGDCSKAKNILKWEPTYTFTQLVYEMLKCDMQDYNLSMDDYDTCMKKYDTYKMGKKQ”, the “soluble on expression in E. coli” value is “not soluble”.

“MIYAAEEVRARFARRGLSFDPTVEEIVRGILEAVREEGDEALDRFSRDLDGYPVEEVPKRAWREAYEDLDEDLRDALETARERIEAFYREEARGGFLRAEGGGVLAQLVRPLERVGVYVPGGSAPLLSTLLMTVVPAKVAGVREVIVASPPKVHPGVLAAAWVAGADRLFAMGGAQAIAALAYGTGRVPRVDKIVGPGNRYVVAAKRLVYGTVGIDGLAGPTETMIIADGSASPRLLAADLLAQAEHGPDSEPWLLSPDRALLERVEAELSWQLQDLPRAEVARQALEKGGLVLTKDLEEAFALANLYAPEHLSLALSDPLPWLEKVQNAGGVFLGEGSPEALGDYIAGPSHVMPTSGTARFQGGLAVRDFLKVIPVVGLSEGAARELAKKGALLARAEGLEGHARSLDLRR”: the “soluble on expression in E. coli” value was “soluble”. Take “MGSDKIHHHHHHMSSIIAALTYFFKEVLVFVSYVKNNAFPQPLSKEEERHYLKRMAEGDEEARNRLIEHNLRLVAHIVKKFENTREHTEDLISIGTIGLIKAIESFSEGKGTKLATYAARCIENEILMHLRALKKVKKDVSLHDPIGTDKEGNEITLIDVLQEDSEDIADSIQLKMEKKQIYEYIHVLDDREKEVIVGRFGLDLEEERTQREIAKELGISRSYVSRIEKRALMKLFHEFYKHNHGKG”: the “soluble on expression in E. coli” value was “not soluble”.

Values taken from the DeepSol protein solubility set.
